In publication PMC9143740:

Molecular target: Interleukin 13 receptor subunit alpha 2 (IL-13Rα2) (human (endogenous in patient-derived HGG cell lines)) (UniProt Q14627)
Sequence of UniProt Q14627 (Q14627 27-380): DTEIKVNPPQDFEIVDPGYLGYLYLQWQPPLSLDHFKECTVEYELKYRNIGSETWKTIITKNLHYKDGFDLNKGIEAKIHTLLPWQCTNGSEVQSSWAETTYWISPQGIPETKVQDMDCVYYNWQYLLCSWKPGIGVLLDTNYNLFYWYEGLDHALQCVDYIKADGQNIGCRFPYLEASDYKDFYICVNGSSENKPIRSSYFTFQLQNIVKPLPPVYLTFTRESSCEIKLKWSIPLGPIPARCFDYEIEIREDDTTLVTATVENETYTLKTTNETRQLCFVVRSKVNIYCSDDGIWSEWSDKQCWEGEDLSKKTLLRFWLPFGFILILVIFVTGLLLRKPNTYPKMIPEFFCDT

With GB-13 (IL13.E13K-PE4E) the IC50 of cell viability (CellTiter-Glo, 72 h), PED17 cells (DMG, IL-13Rα2-high) was 0.02 ng/mL.
